Data taken from patent US7893027B2, “Treatment of ocular wounds and ulcers” (The Board of Regents of the University of Oklahoma, priority 2002, dated 2011).

Legend:
[1] = test system: ICAM-1; assay: Flow cytometry of ICAM-1 expression on HCEC; type: cell-based, human; conditions: for Upregulation of ICAM-1: 1000 ng/ml
Protocol: Flow cytometry was used to assess the upregulation of ICAM-1 and VCAM-1 on HCEC in response to CAP37 treatment. HCEC were cultured as described above and treated with CAP37 (0-2000 ng/ml) for 0, 2, 6, 24, 48 and 72 hr. A corresponding culture was left untreated at each time point. Following treatment with CAP37, cells were detached with 5 mM EDTA (pH 7.4, Fisher Scientific), washed twice in PBS and fixed with 0.125% paraformaldehyde (J.T. Baker, Phillipsburg, N.J.) overnight at 4° C. The cells were washed in PBS and then incubated in 0.5% normal goat serum and 0.5% BSA in PBS for 30 min to block non-specific binding sites. For determination of ICAM-1 expression, cells were incubated in the primary antibody (FITC-labeled mouse anti-human ICAM-1, BIOSOURCE, Camarillo, Calif.) at 10^6 cells/10 μl at 4° C. for 1 hr. Cells were washed in PBS and analyzed by flow cytometry (FACSTAR, BECTON DICKINSON, San Jose, Calif.). For detection of VCAM-1 expression, cells were incubated with unlabeled primary antibody (monoclonal mouse anti human VCAM-1, ENDOGEN, Woburn, Mass. at 2 μg/10^6 cells) followed by FITC-labeled goat anti-mouse IgG (PHARMINGEN, San Diego, Calif.) at 5 μg/10^6 cells and incubated at 4° C. for 30 min. The isotype control for these studies was FITC-labeled mouse isotype IgG1 (PHARMINGEN). The positive control used in these studies was TNF-α (5 ng/ml). At least ten thousand cells were analyzed for each sample.

[2] = test system: PECAM-1 (CD31); assay: Flow cytometry of PECAM-1 expression on HCEC; type: cell-based, human; conditions: CAP37 1 μg/ml
Protocol: Flow cytometry was used to assess the upregulation of PECAM-1 (CD31), and the integrin molecules β1 (CD29), β2 (CD18), β3 (CD61), β4 (CD104), α1 (CD49a), α2 (CD49b), α3 (CD49c), α4 (CD 49d), and αv (CD51). Human corneal epithelial cells were cultured as above and treated with CAP37 (0-2000 ng/ml) for 0-72 hr. A corresponding culture was left untreated at each time point. Following treatment with CAP37, cells were detached with 0.25% trypsin in 1 mM EDTA (pH 7.4, FISHER SCIENTIFIC, Pittsburgh, Pa.), washed twice in PBS and fixed with 0.125% paraformaldehyde (J.T. BAKER, Phillipsburg, N.J.) overnight at 4° C. The cells were washed in PBS and then incubated in 0.5% normal goat serum and 0.5% bovine serum albumin (BSA) in PBS for 30 min to block non-specific binding sites. Cells were incubated in the primary antibody (at concentrations described below) at 4° C. for 1 hr followed by the secondary antibody (FITC-goat anti-mouse IgG, PHARMINGEN, San Diego, Calif.) at 0.5 μg/10^6 cells and incubated at 4° C. for 30 min. The isotype control for these studies was FITC-labeled mouse isotype IgG1 (PHARMINGEN). The cells were analyzed by flow cytometry (FACS Calibur, BECTON DICKINSON, San Jose, Calif.). At least ten thousand cells were analyzed for each sample. […]

B1: CAP37: Cationic Antimicrobial Protein of Mr 37 kDa; recombinant protein from human 293 cells, identical to native PMN-derived CAP37 (SEQ ID NO:1) (protein, listed as Homo sapiens)
chain: IVGGRKARPRQFPFLASIQNQGRHFCGGALIHARFVMTAASCFQSQNPGVSTVVLGAYDLRRRERQSRQTFSISSMSENGYDPQQNLNDLMLLQLDREANLTSSVTILPLPLQNATVEAGTRCQVAGWGSQRSGGRLSRFPRFVNVTVTPEDQCRPNNVCTGVLTRRGGICNGDGGTPLVCEGLAHGVASFSLGPCGRGPDFFTRVALFRDWIDGVLNNPGP
Q: B1 was tested. Which “Upregulation of ICAM-1” value ([1]; 2 hr) did it give?
A: Its value is “no upregulation of ICAM-1 could be detected”.

Q: And the “Upregulation of ICAM-1” value ([1]; 6 hr)?
A: The value was “significant upregulation of ICAM-1”.

Q: And the “Upregulation of ICAM-1” value ([1]; 24 hr)?
A: Its value is “still above the untreated levels”.

Q: What about the “ICAM-1 levels relative to positive control” value ([1]; 1000-2000 ng/ml, TNF-α 5 ng/ml as positive control) of the same molecule?
A: Its value is “comparable to those obtained with the positive control TNF-α”.

Q: What about the “Concentration giving maximum upregulation of ICAM-1” value ([1]; HCEC, 6 hr, flow cytometry) of the same molecule?
A: Its value is 1000 to 2000 ng/mL.

Q: And the ICAM-1 levels ([1]; concentrations between 10 and 500 ng/ml)?
A: Its ICAM-1 levels is “Lower, yet significant levels of ICAM-1”.

Q: What about the PECAM-1 protein expression ([2]; 24 hr) of the same molecule?
A: Its PECAM-1 protein expression is “waned”.

Q: And the PECAM-1 protein expression ([2]; at 6 hr, maintained through 12 hr)?
A: The PECAM-1 protein expression was “Significant protein expression”.
